{"source": "paper PMC12416549", "about": "(2024)", "binders": {"B1": {"name": "L82F (designed binder)", "chain": "MTLQELLREEALRRAEAEAFRYALELLAEKFPEQKEYLLDLAEEIESQIRSLSGVDVEDVRKFLDKEWAWVKELLAEHPAEFAEVEAARAARLAELRAEVEAKVAA"}, "B2": {"name": "V55Q (designed binder)", "chain": "B1 chain with V55Q, F82L"}, "B3": {"name": "Y22M (designed binder)", "chain": "B1 chain with Y22M, F82L"}, "B4": {"name": "E95Q (designed binder)", "chain": "B1 chain with F82L, E95Q"}, "B5": {"name": "E5T (designed binder)", "chain": "B1 chain with E5T, F82L"}, "B6": {"name": "E29A (designed binder)", "chain": "B1 chain with E29A, F82L"}, "B7": {"name": "V71G (designed binder)", "chain": "B1 chain with V71G, F82L"}, "B8": {"name": "R21E (designed binder)", "chain": "B1 chain with R21E, F82L"}, "B9": {"name": "V57H (designed binder)", "chain": "B1 chain with V57H, F82L"}, "B10": {"name": "A11H (designed binder)", "chain": "B1 chain with A11H, F82L"}, "B11": {"name": "W70E (designed binder)", "chain": "B1 chain with W70E, F82L"}, "B12": {"name": "L26W (designed binder)", "chain": "B1 chain with L26W, F82L"}, "B13": {"name": "Q48L (designed binder)", "chain": "B1 chain with Q48L, F82L"}, "B14": {"name": "A87S (designed binder)", "chain": "B1 chain with F82L, A87S"}, "B15": {"name": "A105M (designed binder)", "chain": "B1 chain with F82L, A105M"}, "B16": {"name": "E46P (designed binder)", "chain": "B1 chain with E46P, F82L"}, "B17": {"name": "K35T (designed binder)", "chain": "B1 chain with K35T, F82L"}, "B18": {"name": "V71E (designed binder)", "chain": "B1 chain with V71E, F82L"}, "B19": {"name": "A91Q (designed binder)", "chain": "B1 chain with F82L, A91Q"}, "B20": {"name": "W70L (designed binder)", "chain": "B1 chain with W70L, F82L"}, "B21": {"name": "W68P (designed binder)", "chain": "B1 chain with W68P, F82L"}, "B22": {"name": "L24R (designed binder)", "chain": "B1 chain with L24R, F82L"}, "B23": {"name": "E77H (designed binder)", "chain": "B1 chain with E77H, F82L"}, "B24": {"name": "A42S (designed binder)", "chain": "B1 chain with A42S, F82L"}, "B25": {"name": "E86F (designed binder)", "chain": "B1 chain with F82L, E86F"}, "B26": {"name": "A105Q (designed binder)", "chain": "B1 chain with F82L, A105Q"}, "B27": {"name": "L12N (designed binder)", "chain": "B1 chain with L12N, F82L"}, "B28": {"name": "L41N (designed binder)", "chain": "B1 chain with L41N, F82L"}, "B29": {"name": "R97G (designed binder)", "chain": "B1 chain with F82L, R97G"}, "B30": {"name": "F20E (designed binder)", "chain": "B1 chain with F20E, F82L"}, "B31": {"name": "A94W (designed binder)", "chain": "B1 chain with F82L, A94W"}, "B32": {"name": "A15V (designed binder)", "chain": "B1 chain with A15V, F82L"}, "B33": {"name": "K103H (designed binder)", "chain": "B1 chain with F82L, K103H"}, "B34": {"name": "E33D (designed binder)", "chain": "B1 chain with E33D, F82L"}, "B35": {"name": "A17G (designed binder)", "chain": "B1 chain with A17G, F82L"}, "B36": {"name": "W68C (designed binder)", "chain": "B1 chain with W68C, F82L"}, "B37": {"name": "M1R (designed binder)", "chain": "B1 chain with M1R, F82L"}, "B38": {"name": "S53K (designed binder)", "chain": "B1 chain with S53K, F82L"}, "B39": {"name": "E81H (designed binder)", "chain": "B1 chain with E81H, F82L"}, "B40": {"name": "L41H (designed binder)", "chain": "B1 chain with L41H, F82L"}, "B41": {"name": "Q48W (designed binder)", "chain": "B1 chain with Q48W, F82L"}, "B42": {"name": "I45T (designed binder)", "chain": "B1 chain with I45T, F82L"}, "B43": {"name": "L39E (designed binder)", "chain": "B1 chain with L39E, F82L"}, "B44": {"name": "R92E (designed binder)", "chain": "B1 chain with F82L, R92E"}, "B45": {"name": "F63R (designed binder)", "chain": "B1 chain with F63R, F82L"}, "B46": {"name": "V71N (designed binder)", "chain": "B1 chain with V71N, F82L"}, "B47": {"name": "E99F (designed binder)", "chain": "B1 chain with F82L, E99F"}, "B48": {"name": "V57E (designed binder)", "chain": "B1 chain with V57E, F82L"}, "B49": {"name": "D56V (designed binder)", "chain": "B1 chain with D56V, F82L"}, "B50": {"name": "A98Y (designed binder)", "chain": "B1 chain with F82L, A98Y"}, "B51": {"name": "A106R (designed binder)", "chain": "B1 chain with F82L, A106R"}, "B52": {"name": "S47M (designed binder)", "chain": "B1 chain with S47M, F82L"}, "B53": {"name": "E16M (designed binder)", "chain": "B1 chain with E16M, F82L"}, "B54": {"name": "E77Y (designed binder)", "chain": "B1 chain with E77Y, F82L"}, "B55": {"name": "A94C (designed binder)", "chain": "B1 chain with F82L, A94C"}}, "note": "Positions count from the first letter of the chain named. In names and notes the source's numbering stands.", "data": [{"molecular_target": "T1, TNFR1 (Homo sapiens, UniProt P19438)", "T1 chain": "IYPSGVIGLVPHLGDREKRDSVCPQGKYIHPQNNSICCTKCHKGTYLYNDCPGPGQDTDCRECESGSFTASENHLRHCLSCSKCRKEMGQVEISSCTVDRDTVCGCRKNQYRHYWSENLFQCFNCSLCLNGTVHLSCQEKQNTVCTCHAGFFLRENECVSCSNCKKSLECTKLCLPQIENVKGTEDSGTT", "assay": "yeast display SC50", "units": {"apparent Kd (screen)": "nM"}, "values": [{"binder": "B1", "apparent Kd (screen)": 0.539}, {"binder": "B2", "apparent Kd (screen)": 1.05}, {"binder": "B3", "apparent Kd (screen)": 0.653}, {"binder": "B4", "apparent Kd (screen)": 0.446}, {"binder": "B5", "apparent Kd (screen)": 0.446}, {"binder": "B6", "apparent Kd (screen)": 0.718}, {"binder": "B7", "apparent Kd (screen)": 22.2}, {"binder": "B8", "apparent Kd (screen)": 0.49}, {"binder": "B9", "apparent Kd (screen)": 0.593}, {"binder": "B10", "apparent Kd (screen)": 0.718}, {"binder": "B11", "apparent Kd (screen)": 26.9}, {"binder": "B12", "apparent Kd (screen)": 0.405}, {"binder": "B13", "apparent Kd (screen)": 2.73}, {"binder": "B14", "apparent Kd (screen)": 0.653}, {"binder": "B15", "apparent Kd (screen)": 0.653}, {"binder": "B16", "apparent Kd (screen)": 0.49}, {"binder": "B17", "apparent Kd (screen)": 0.539}, {"binder": "B18", "apparent Kd (screen)": 0.869}, {"binder": "B19", "apparent Kd (screen)": 0.49}, {"binder": "B20", "apparent Kd (screen)": 22.2}, {"binder": "B21", "apparent Kd (screen)": 7.78}, {"binder": "B22", "apparent Kd (screen)": 7.78}, {"binder": "B23", "apparent Kd (screen)": 0.653}, {"binder": "B24", "apparent Kd (screen)": 0.539}, {"binder": "B25", "apparent Kd (screen)": 2.25}, {"binder": "B26", "apparent Kd (screen)": 0.539}, {"binder": "B27", "apparent Kd (screen)": 0.446}, {"binder": "B28", "apparent Kd (screen)": 2.05}, {"binder": "B29", "apparent Kd (screen)": 0.539}, {"binder": "B30", "apparent Kd (screen)": 5.31}, {"binder": "B31", "apparent Kd (screen)": 0.539}, {"binder": "B32", "apparent Kd (screen)": 0.653}, {"binder": "B33", "apparent Kd (screen)": 0.49}, {"binder": "B34", "apparent Kd (screen)": 0.49}, {"binder": "B35", "apparent Kd (screen)": 0.539}, {"binder": "B36", "apparent Kd (screen)": 2.48}, {"binder": "B37", "apparent Kd (screen)": 0.593}, {"binder": "B38", "apparent Kd (screen)": 2.73}, {"binder": "B39", "apparent Kd (screen)": 0.446}, {"binder": "B40", "apparent Kd (screen)": 13.8}, {"binder": "B41", "apparent Kd (screen)": 29.5}, {"binder": "B42", "apparent Kd (screen)": 10.4}, {"binder": "B43", "apparent Kd (screen)": 2.48}, {"binder": "B44", "apparent Kd (screen)": 1.05}, {"binder": "B45", "apparent Kd (screen)": 9.41}, {"binder": "B46", "apparent Kd (screen)": 0.869}, {"binder": "B47", "apparent Kd (screen)": 0.593}, {"binder": "B48", "apparent Kd (screen)": 1.86}, {"binder": "B49", "apparent Kd (screen)": 2.73}, {"binder": "B50", "apparent Kd (screen)": 0.539}, {"binder": "B51", "apparent Kd (screen)": 0.539}, {"binder": "B52", "apparent Kd (screen)": 0.49}, {"binder": "B53", "apparent Kd (screen)": 1.05}, {"binder": "B54", "apparent Kd (screen)": 0.49}, {"binder": "B55", "apparent Kd (screen)": 0.718}]}]}
